Measurements: paper PMC4673700
Like-named read-outs stand apart in the source and are kept apart here.

Assays:
[1] = target: GST-fused galectin-1 protein (human) (UniProt P09382)
[2] = target: PNGase F-treated aflibercept (human); assay: BLI; BLItz; aflibercept, PNGase F-treated aflibercept, VEGFR1-Fc or VEGFR2-Fc immobilised on Protein A-coated biosensors; GST-galectin-1 as analyte at various concentrations; PBS; values of empty sensors subtracted
Aflibercept (human) = assay: as above
[3] = target: PNGase F-treated aflibercept (human); assay: as above; remark: listed apart in the source

Chain of GST-fused galectin-1 protein (P09382 whole entry, the tested form may be a part): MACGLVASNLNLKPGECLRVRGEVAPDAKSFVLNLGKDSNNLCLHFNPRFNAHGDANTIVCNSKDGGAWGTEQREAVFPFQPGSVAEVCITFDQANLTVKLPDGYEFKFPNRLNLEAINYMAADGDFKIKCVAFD
Chain of GST-fused galectin-1 protein (human) (P09382 whole entry, the tested form may be a part): as above
Chain of Aflibercept (Fc fusion) (chain): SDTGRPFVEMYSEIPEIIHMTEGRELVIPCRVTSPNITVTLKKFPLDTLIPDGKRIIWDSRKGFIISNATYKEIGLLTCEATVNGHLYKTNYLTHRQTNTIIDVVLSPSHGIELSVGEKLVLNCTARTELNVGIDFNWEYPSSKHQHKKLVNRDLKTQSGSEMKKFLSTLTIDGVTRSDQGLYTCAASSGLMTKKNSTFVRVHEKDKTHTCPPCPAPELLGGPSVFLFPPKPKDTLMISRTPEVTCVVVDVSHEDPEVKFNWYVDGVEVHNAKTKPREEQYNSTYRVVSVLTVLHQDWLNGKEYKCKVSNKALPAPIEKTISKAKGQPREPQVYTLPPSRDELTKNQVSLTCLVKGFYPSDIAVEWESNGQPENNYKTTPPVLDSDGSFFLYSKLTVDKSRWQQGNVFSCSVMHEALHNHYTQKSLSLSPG

Row | HRMEC proliferation (RealTime-Glo, relative to PBS) with 10 μg/ml galectin-1 for 48 h with 7.5 μg/ml aflibercept (2.77 without aflibercept) [1] [fold change] | Kd [2] [nM] | Kd (Aflibercept (human)) [nM] | koff (Aflibercept (human)) [s⁻¹] | kon (Aflibercept (human)) [M⁻¹ s⁻¹] | Kd [3] [nM] | koff [3] [s⁻¹] | kon [3] [M⁻¹ s⁻¹] | Substance
1 | 0.96 |  |  |  |  |  |  |  | Aflibercept (Fc fusion)
2 |  | 869 | 23.7 | 0.000371 | 15700 | 868 | 0.00531 | 6120 | GST-fused galectin-1 protein (from UniProt P09382 1-135) (natural protein)
